Assay results from article PMC4936896, “Primate TRIM5 proteins form hexagonal nets on HIV-1 capsids” (eLife, 2016).

B1: chimpanzee TRIM5α (Pan troglodytes) (natural protein, chimpanzee (Pan troglodytes), UniProt Q5D7J1 1-493, looked up)
chain: MASGILVNVKEEVTCPICLELLTQPLSLDCGHSFCQACLTANHKKSMLDKGESSCPVCRISYQPENIRPNRHVANIVEKLREVKLSPEGQKVDHCAHHGEKLLLFCQEDGKVICWLCERSQEHRGHHTFLTEEVAREYQVKLQAALEMLRQKQQEAEELEADIREEKASWKTQIQYDKTNVLADFEQLRDILDWEESNELQNLEKEEEDILKSLTKSETEMVQQTQSVRELISDLERRLQGSVMELLQGVDGVIKRMENVTLKKPETFPKNQRRVFRAPDLKGMLEVFRELTDVRRYWVDVTVAPNNISCAVISEDMRQVSSPKPQIIYGARGTRYQTFMNFNYCTGILGSQSITSGKHYWEVDVSKKSAWILGVCAGFQPDAMCNIEKNENYQPKYGYWVIGLEEGVKCSAFQDGSFHTPSAPFIVPLSVIICPDRVGVFLDYEACTVSFFNITNHGSLIYKFSHCSFSQPVFPYLNPRKCGVPMTLCSPSS
notes: also called TRIM5αcpz
B2: African green monkey TRIM5α (Chlorocebus pygerythrus) (natural protein, UniProt Q5C8U4 1-515, looked up)
chain: MASGILVNVKEEVTCPICLELLTEPLSLPCGHSLCQACITANHKESMLYKEEERSCPVCRISYQPENIQPNRHVANIVEKLREVKLSPEEGQKVDHCARHGEKLLLFCQEDSKVICWLCERSQEHRGHHTFLMEEVAQEYHVKLQTALEMLRQKQQEAEKLEADIREEKASWKIQIDYDKTNVSADFEQLREILDWEESNELQNLEKEEEDILKSLTKSETEMVQQTQYMRELISDLEHRLQGSMMELLQGVDGIIKRVENMTLKKPKTFHKNQRRVFRAPDLKGMLDMFRELTDVRRYWVDVTLAPNNISHAVIAEDKRQVSYRNPQIMYQSPGSLFGSLTNFSYCTGVPGSQSITSGKLTNFNYCTGVLGSQSITSGKHYWEVDVSKKSAWILGVCAGFQPDATYNIEQNENYQPKYGYWVIGLQEGDKYSVFQDGSSHTPFAPFIVPLSVIICPDRVGVFVDYEACTVSFFNITNHGFLIYKFSQCSFSKPVFPYLNPRKCTVPMTLCSPSS
notes: also called TRIM5α_(AGMpyg); TRIM5_(AGMpyg)
B3: proteolysis-resistant owl monkey TRIMCyp_(K283D,Q287D) (natural protein)
chain: not shown
B4: owl monkey TRIMCyp (Aotus trivirgatus) (natural protein)
chain: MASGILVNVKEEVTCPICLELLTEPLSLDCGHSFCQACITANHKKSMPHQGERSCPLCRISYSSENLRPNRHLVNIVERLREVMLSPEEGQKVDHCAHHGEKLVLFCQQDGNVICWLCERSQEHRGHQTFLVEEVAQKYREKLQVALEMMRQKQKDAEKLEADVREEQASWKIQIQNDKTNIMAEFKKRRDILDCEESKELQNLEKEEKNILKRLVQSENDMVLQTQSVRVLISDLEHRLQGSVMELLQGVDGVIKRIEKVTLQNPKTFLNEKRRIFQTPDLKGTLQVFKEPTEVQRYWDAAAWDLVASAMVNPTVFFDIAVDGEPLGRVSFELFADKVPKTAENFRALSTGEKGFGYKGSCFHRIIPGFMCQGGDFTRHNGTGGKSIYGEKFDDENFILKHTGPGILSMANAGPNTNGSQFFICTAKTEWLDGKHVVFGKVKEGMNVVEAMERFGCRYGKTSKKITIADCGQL

Target: the molecule itself
Assay: SEC; final gel filtration step, HiLoad 16/600 Superdex 200 in 20 mM CHES, 100 nM ZnCl2, 1 mM TCEP, pH 10.0, 4°C; oligomer judged from retention time

Stoichiometry N, 2:
B1, B2, B3, B4
